Test results published in patent US5460942A, “The catalytic moiety of the glucose-6-phosphatase system: the gene and protein and related mutations” (The United States of America as represented by the …, priority 1993, dated 1995).

Legend:
[1] = target: human G-6-Pase (Homo sapiens, UniProt P35575, A192T); settings: read-out: Vanadate K1; phG-6-Pase-1-transfected COS-1 microsomes
Procedure: (§1) The functional identity of the human G-6-Pase cDNA was studied in a manner similiar to that described above with the murine G-6-Pase. Detailed biochemical studies were performed on microsomal preparations isolated from COS-1 cells transiently transfected with the phG-6-Pase-1 cDNA and compared with activities in human liver microsomes.

[2] = target: human liver microsomal G-6-Pase (Homo sapiens, UniProt P35575); settings: read-out: Vanadate K1; human liver microsomes
Procedure: as §1

[3] = target: glucose-6-P phosphohydrolase activity; settings: read-out: Ki for vanadate reported; permeable hepatocytes or rat microsomes; cited from earlier work
[4] = target: T1, mouse liver microsomal G-6-Pase (Mus musculus, UniProt P35576); assay: Phosphohydrolase assay, adult mouse liver microsomes; format: biochemical; settings: competitive inhibitor of glucose-6-P phosphohydrolysis, read-out: Vanadate, Ki
T1 construct: hepatic G-6-Pase activities of microsomes isolated from adult mouse liver; from tissue; host or cells: liver microsomes of fasted Swiss Webster mice
T1 sequence (P35576 1-357): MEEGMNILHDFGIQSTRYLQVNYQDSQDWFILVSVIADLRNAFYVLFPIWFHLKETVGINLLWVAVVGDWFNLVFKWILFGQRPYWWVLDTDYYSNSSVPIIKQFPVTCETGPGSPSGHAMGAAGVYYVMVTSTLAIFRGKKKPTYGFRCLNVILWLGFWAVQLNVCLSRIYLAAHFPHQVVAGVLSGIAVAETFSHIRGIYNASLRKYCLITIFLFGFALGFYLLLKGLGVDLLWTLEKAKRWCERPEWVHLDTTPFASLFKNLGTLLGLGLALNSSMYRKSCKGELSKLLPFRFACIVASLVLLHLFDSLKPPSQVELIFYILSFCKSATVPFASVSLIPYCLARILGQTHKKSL
Procedure: (§2) Microsomal membranes were isolated by the method of Burchell et al. supra. Samples were taken from either Swiss Webster mice which had been fasted overnight or freshly prepared homogenates of pSVLmG-6-Pase-transfected COS-1 cells. Disrupted microsomal membranes were prepared by incubating intact membranes in 0.2% deoxycholate for 20 min at 0° C.
(§3) Phosphohydrolase activity was determined essentially as described by Burchell et al. Supra. […] Sample absorbance was determined at 820 nm and is related to the amount of phosphate released using a standard curve constructed by a stock of inorganic phosphate solution.

[5] = target: T2, murine G-6-Pase (Mus musculus, UniProt P35576); settings: read-out: Ki values for vanadate observed in the present study; both microsomal preparations (transfected COS-1 cells and adult mouse livers)
T2 sequence (P35576 1-357): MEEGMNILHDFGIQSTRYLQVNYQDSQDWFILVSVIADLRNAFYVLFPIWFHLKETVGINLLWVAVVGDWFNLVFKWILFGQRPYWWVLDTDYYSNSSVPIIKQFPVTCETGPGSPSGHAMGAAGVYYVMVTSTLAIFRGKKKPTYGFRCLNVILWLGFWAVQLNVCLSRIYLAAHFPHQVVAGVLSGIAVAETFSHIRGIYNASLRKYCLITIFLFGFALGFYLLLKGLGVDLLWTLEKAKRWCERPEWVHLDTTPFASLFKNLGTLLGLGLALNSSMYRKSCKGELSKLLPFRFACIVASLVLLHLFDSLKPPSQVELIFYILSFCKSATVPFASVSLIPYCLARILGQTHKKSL
Procedure: COS-1 cells were grown at 37° C. in HEPES-buffered Dulbecco modified minimal essential medium supplemented with streptomycin, penicillin, and 4% fetal bovine serum. […] Mock transfections of COS-1 cultures with the pSVL vector were used as controls.
as §2, §3

[6] = substrate: O=P(O)(O)OC[C@H]1OC(O)[C@@H](O)[C@@H](O)[C@@H]1O; assay: cells, lysate or membranes named; settings: other: disrupted adult mouse liver microsomes; mean ± SEM; pH 6.5; 30.0 °C
[7] = substrate: O=P(O)(O)OC[C@H]1OC(O)[C@H](O)[C@@H](O)[C@@H]1O; assay: cells, lysate or membranes named; settings: pH 6.5, 30.0 °C
[8] = pH profile of glucose-6-P phosphohydrolase activity in disrupted microsomes; format: biochemical, mouse
[9] = Carbamyl-P:glucose phosphotransferase activity in disrupted microsomes; format: biochemical, mouse; settings: deoxycholate-disrupted microsomes, linear region of enzyme concentration curves
Procedure: Phosphotransferase activity was determined by a modification of the method described by Jorgenson and Nordlie, supra. Reaction mixture (10 μl) contained 100 mM HEPES buffer, pH 6.5, 50 mM glucose, […] D-glucose (10^5 cpm/reaction, 256 mCi/mmol, ICN Biochemicals, Irvine, Calif.), 4 mM carbamyl-P, and deoxycholate-disrupted microsomal proteins. […] The samples were then centrifuged at 10,000×g for 5 min, and 2 to 4 μl of supernatant applied to a PEI-cellulose plate (J. T. Baker, Inc., Phillipsburg, N.J.). Glucose-6-P was separated from glucose by thin-layer chromatography developed in water. Spots were quantitated on an AMBIS Radioanalytic Imaging System (San Diego, Calif.).

[10] = Thermal stability of glucose-6-P phosphohydrolase activity (37° C., 10 min, pH 5.0); format: biochemical; settings: for Thermal Stability (enzyme activities remaining after heat treatment): deoxycholate (0.2%) disrupted microsomes
Procedure: Hepatic G-6-Pase is characterized by its high thermal lability; G-6-Pase is completely inactivated by incubating the microsomal preparation (or homogenate) at pH 5.0 for 10 min at 37° C., Hers, H. G., in Advances in Metabolic Disorders Vol 1 (eds Levine, R., Luft, L.), 1-44 (Academic Press, London, 1964).

[11] = Phosphohydrolase activity of site-directed human G-6-Pase mutants in transfected cells; format: biochemical; settings: arginine to cysteine substitution; pSVL constructs in transfected cells
From the text: The two outside PCR primers were 01 (5'-[…]-3' (Seq. ID No.:29), nucleotides 77 to 96) and 02 (5'-[…]-3' (Seq. ID No.:30), nucleotides 1153 to 1130). […] 01 and 02 contain an additional XhoI or XbaI linker, respectively. […] The amplified fragments were digested with XhoI and XbaI and ligated into a pSVL vector. All constructs were confirmed by DNA sequencing.

For `[O]=[V]([OH])([OH])[OH]` [Vanadate], the Ki [1] is given as 1680 µM, the Ki [2] is given as 1610 µM and the Ki [3] is given as 1.5 µM. For the same molecule, the Ki [4] was 330 µM and the Ki [5] was 330 to 340 µM.

B1: mouse liver microsomal G-6-Pase (Mus musculus) (protein)
chain: MEEGMNILHDFGIQSTRYLQVNYQDSQDWFILVSVIADLRNAFYVLFPIWFHLKETVGINLLWVAVVGDWFNLVFKWILFGQRPYWWVLDTDYYSNSSVPIIKQFPVTCETGPGSPSGHAMGAAGVYYVMVTSTLAIFRGKKKPTYGFRCLNVILWLGFWAVQLNVCLSRIYLAAHFPHQVVAGVLSGIAVAETFSHIRGIYNASLRKYCLITIFLFGFALGFYLLLKGLGVDLLWTLEKAKRWCERPEWVHLDTTPFASLFKNLGTLLGLGLALNSSMYRKSCKGELSKLLPFRFACIVASLVLLHLFDSLKPPSQVELIFYILSFCKSATVPFASVSLIPYCLARILGQTHKKSL
For B1, the Km [6] was 670 µM, the Km ([7]; other: disrupted adult mouse liver microsomes, mean ± SEM) was 680 µM and the Km ([7]; other: intact adult mouse liver microsomes) was 3300 µM.

B2: pSVLmG-6-Pase-Transfacted COS: recombinant murine G-6-Pase in microsomes of COS-1 cells transfected with pSVLmG-6-Pase (protein, UniProt P35576 1-357, looked up)
Glucose-6-phosphatase …: MEEGMNILHDFGIQSTRYLQVNYQDSQDWFILVSVIADLRNAFYVLFPIWFHLKETVGINLLWVAVVGDWFNLVFKWILFGQRPYWWVLDTDYYSNSSVPIIKQFPVTCETGPGSPSGHAMGAAGVYYVMVTSTLAIFRGKKKPTYGFRCLNVILWLGFWAVQLNVCLSRIYLAAHFPHQVVAGVLSGIAVAETFSHIRGIYNASLRKYCLITIFLFGFALGFYLLLKGLGVDLLWTLEKAKRWCERPEWVHLDTTPFASLFKNLGTLLGLGLALNSSMYRKSCKGELSKLLPFRFACIVASLVLLHLFDSLKPPSQVELIFYILSFCKSATVPFASVSLIPYCLARILGQTHKKSL
modifications: in COS-1 microsomes
notes: recombinant murine G-6-Pase in microsomes of COS-1 cells transfected with pSVLmG-6-Pase
For B2, the “pH optimum of glucose-6-P phosphohydrolase activity” value [8] was ~6.5, the “Phosphotransferase, Carbamyl-P: Glucose” value [9] was 0.22 μmol/min/mg of microsomal prot and the “Thermal Stability (enzyme activities remaining after heat treatment)” value ([10]; 37° C. for 10 min at pH 5.0, murine study) was 1.6%. For the same molecule, the “glucose-6-P phosphohydrolase activity after incubation at 37° C. for 10 min at pH 5.0 (in words)” value ([10]; murine study) was “abolished”.

B3: human G-6-Pase (Homo sapiens; A192T) (protein)
chain: MEEGMNVLHDFGIQSTHYLQVNYQDSQDWFILVSVIADLRNAFYVLFPIWFHLQEAVGIKLLWVAVIGDWLNLVFKWILFGQRPYWWVLDTDYYSNTSVPLIKQFPVTCETGPGSPSGHAMGTAGVYYVMVTSTLSIFQGKIKPTYRFRCLNVILWLGFWAVQLNVCLSRIYLAAHFPHQVVAGVLSGIAVTETFSHIHSIYNASLKKYFLITFFLFSFAIGFYLLLKGLGVDLLWTLEKAQRWCEQPEWVHIDTTPFASLLKNLGTLFGLGLALNSSMYRESCKGKLSKWLPFRLSSIVASLVLLHVFDSLKPPSQVELVFYVLSFCKSAVVPLASVSVIPYCLAQVLGQPHKKSL
For B3, the Km ([7]; other: phG-6-Pase-1-transfected COS-1 microsomes) was 1770 ± 130 µM.

B4: G-6-Pase-Cys^83: human G-6-Pase mutant, arginine 83 changed to cysteine (protein, UniProt P35575 1-357, looked up, variant R83C)
Glucose-6-phosphatase …: MEEGMNVLHDFGIQSTHYLQVNYQDSQDWFILVSVIADLRNAFYVLFPIWFHLQEAVGIKLLWVAVIGDWLNLVFKWILFGQCPYWWVLDTDYYSNTSVPLIKQFPVTCETGPGSPSGHAMGTAGVYYVMVTSTLSIFQGKIKPTYRFRCLNVILWLGFWAVQLNVCLSRIYLAAHFPHQVVAGVLSGIAVAETFSHIHSIYNASLKKYFLITFFLFSFAIGFYLLLKGLGVDLLWTLEKAQRWCEQPEWVHIDTTPFASLLKNLGTLFGLGLALNSSMYRESCKGKLSKWLPFRLSSIVASLVLLHVFDSLKPPSQVELVFYVLSFCKSAVVPLASVSVIPYCLAQVLGQPHKKSL
With B4 the “G-6-Pase phosphohydrolase activity of mutant” value [11] was “abolished”.

B5: G-6-Pase-Cys^295: human G-6-Pase mutant, arginine 295 changed to cysteine (protein, UniProt P35575 1-357, looked up, variant R295C)
Glucose-6-phosphatase …: MEEGMNVLHDFGIQSTHYLQVNYQDSQDWFILVSVIADLRNAFYVLFPIWFHLQEAVGIKLLWVAVIGDWLNLVFKWILFGQRPYWWVLDTDYYSNTSVPLIKQFPVTCETGPGSPSGHAMGTAGVYYVMVTSTLSIFQGKIKPTYRFRCLNVILWLGFWAVQLNVCLSRIYLAAHFPHQVVAGVLSGIAVAETFSHIHSIYNASLKKYFLITFFLFSFAIGFYLLLKGLGVDLLWTLEKAQRWCEQPEWVHIDTTPFASLLKNLGTLFGLGLALNSSMYRESCKGKLSKWLPFCLSSIVASLVLLHVFDSLKPPSQVELVFYVLSFCKSAVVPLASVSVIPYCLAQVLGQPHKKSL
In the case of B5, the “G-6-Pase phosphohydrolase activity of mutant” value [11] is reported as “abolished”.

B6: phG-6-Pase-1-COS: recombinant human G-6-Pase in microsomes of COS-1 cells transiently transfected with phG-6-Pase-1 cDNA (protein, UniProt P35575 1-357, looked up)
Glucose-6-phosphatase …: MEEGMNVLHDFGIQSTHYLQVNYQDSQDWFILVSVIADLRNAFYVLFPIWFHLQEAVGIKLLWVAVIGDWLNLVFKWILFGQRPYWWVLDTDYYSNTSVPLIKQFPVTCETGPGSPSGHAMGTAGVYYVMVTSTLSIFQGKIKPTYRFRCLNVILWLGFWAVQLNVCLSRIYLAAHFPHQVVAGVLSGIAVAETFSHIHSIYNASLKKYFLITFFLFSFAIGFYLLLKGLGVDLLWTLEKAQRWCEQPEWVHIDTTPFASLLKNLGTLFGLGLALNSSMYRESCKGKLSKWLPFRLSSIVASLVLLHVFDSLKPPSQVELVFYVLSFCKSAVVPLASVSVIPYCLAQVLGQPHKKSL
modifications: in COS-1 microsomes
notes: recombinant human G-6-Pase in microsomes of COS-1 cells transiently transfected with phG-6-Pase-1 cDNA
For B6, the “Thermal Stability (enzyme activities remaining after heat treatment)” value ([10]; 10 min at 37° C., 50 mM cacodylate buffer pH 5.0, human study) was 6.0% and the “glucose-6-P phosphohydrolase activity after incubation at 37° C. for 10 min at pH 5.0 (in words)” value ([10]; human study) was “virtually abolished”.

B7: human liver microsomal G-6-Pase (Homo sapiens) (protein)
chain: MEEGMNVLHDFGIQSTHYLQVNYQDSQDWFILVSVIADLRNAFYVLFPIWFHLQEAVGIKLLWVAVIGDWLNLVFKWILFGQRPYWWVLDTDYYSNTSVPLIKQFPVTCETGPGSPSGHAMGTAGVYYVMVTSTLSIFQGKIKPTYRFRCLNVILWLGFWAVQLNVCLSRIYLAAHFPHQVVAGVLSGIAVAETFSHIHSIYNASLKKYFLITFFLFSFAIGFYLLLKGLGVDLLWTLEKAQRWCEQPEWVHIDTTPFASLLKNLGTLFGLGLALNSSMYRESCKGKLSKWLPFRLSSIVASLVLLHVFDSLKPPSQVELVFYVLSFCKSAVVPLASVSVIPYCLAQVLGQPHKKSL
B7 showed a Km ([7]; other: human liver microsomes) of 1710 ± 110 µM.
